B1: Phytochrome B (Arabidopsis thaliana (Mouse-ear cress)), P14713 (parent)
chain: MVSGVGGSGGGRGGGRGGEEEPSSSHTPNNRRGGEQAQSSGTKSLRPRSNTESMSKAIQQYTVDARLHAVFEQSGESGKSFDYSQSLKTTTYGSSVPEQQITAYLSRIQRGGYIQPFGCMIAVDESSFRIIGYSENAREMLGIMPQSVPTLEKPEILAMGTDVRSLFTSSSSILLERAFVAREITLLNPVWIHSKNTGKPFYAILHRIDVGVVIDLEPARTEDPALSIAGAVQSQKLAVRAISQLQALPGGDIKLLCDTVVESVRDLTGYDRVMVYKFHEDEHGEVVAESKRDDLEPYIGLHYPATDIPQASRFLFKQNRVRMIVDCNATPVLVVQDDRLTQSMCLVGSTLRAPHGCHSQYMANMGSIASLAMAVIINGNEDDGSNVASGRSSMRLWGLVVCHHTSSRCIPFPLRYACEFLMQAFGLQLNMELQLALQMSEKRVLRTQTLLCDMLLRDSPAGIVTQSPSIMDLVKCDGAAFLYHGKYYPLGVAPSEVQIKDVVEWLLANHADSTGLSTDSLGDAGYPGAAALGDAVCGMAVAYITKRDFLFWFRSHTAKEIKWGGAKHHPEDKDDGQRMHPRSSFQAFLEVVKSRSQPWETAEMDAIHSLQLILRDSFKESEAAMNSKVVDGVVQPCRDMAGEQGIDELGAVAREMVRLIETATVPIFAVDAGGCINGWNAKIAELTGLSVEEAMGKSLVSDLIYKENEATVNKLLSRALRGDEEKNVEVKLKTFSPELQGKAVFVVVNACSSKDYLNNIVGVCFVGQDVTSQKIVMDKFINIQGDYKAIVHSPNPLIPPIFAADENTCCLEWNMAMEKLTGWSRSEVIGKMIVGEVFGSCCMLKGPDALTKFMIVLHNAIGGQDTDKFPFPFFDRNGKFVQALLTANKRVSLEGKVIGAFCFLQIPSPELQQALAVQRRQDTECFTKAKELAYICQVIKNPLSGMRFANSLLEATDLNEDQKQLLETSVSCEKQISRIVGDMDLESIEDGSFVLKREEFFLGSVINAIVSQAMFLLRDRGLQLIRDIPEEIKSIEVFGDQIRIQQLLAEFLLSIIRYAPSQEWVEIHLSQLSKQMADGFAAIRTEFRMACPGEGLPPELVRDMFHSSRWTSPEGLGLSVCRKILKLMNGEVQYIRESERSYFLIILELPVPRKRPLSTASGSGDMMLMMPY
partner: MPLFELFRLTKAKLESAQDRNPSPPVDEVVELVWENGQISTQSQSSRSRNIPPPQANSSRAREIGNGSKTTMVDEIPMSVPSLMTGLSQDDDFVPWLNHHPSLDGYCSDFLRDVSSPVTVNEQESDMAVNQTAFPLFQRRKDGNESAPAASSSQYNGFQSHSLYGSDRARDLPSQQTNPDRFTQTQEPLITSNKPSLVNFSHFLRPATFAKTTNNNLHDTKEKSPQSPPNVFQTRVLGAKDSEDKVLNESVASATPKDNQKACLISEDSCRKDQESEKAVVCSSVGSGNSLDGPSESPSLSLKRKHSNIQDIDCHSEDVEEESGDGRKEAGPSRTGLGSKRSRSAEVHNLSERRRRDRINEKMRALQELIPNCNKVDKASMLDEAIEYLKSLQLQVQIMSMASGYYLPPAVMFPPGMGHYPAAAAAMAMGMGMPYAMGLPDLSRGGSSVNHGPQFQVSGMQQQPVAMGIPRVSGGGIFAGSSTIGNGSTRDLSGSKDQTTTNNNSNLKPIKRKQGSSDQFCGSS
B2: Phytochrome B (Arabidopsis thaliana (Mouse-ear cress)), P14713 (parent)
chain: B1 chain
partner: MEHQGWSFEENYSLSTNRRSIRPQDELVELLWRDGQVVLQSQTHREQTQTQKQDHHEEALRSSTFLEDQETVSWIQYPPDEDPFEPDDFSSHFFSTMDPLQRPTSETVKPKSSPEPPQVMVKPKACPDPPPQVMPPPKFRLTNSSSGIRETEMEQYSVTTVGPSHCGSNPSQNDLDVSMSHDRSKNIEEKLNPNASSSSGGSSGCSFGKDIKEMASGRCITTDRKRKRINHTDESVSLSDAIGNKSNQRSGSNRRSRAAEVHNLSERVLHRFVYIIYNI
B3: Phytochrome A (Arabidopsis thaliana (Mouse-ear cress)), P14712 (parent)
chain: MSGSRPTQSSEGSRRSRHSARIIAQTTVDAKLHADFEESGSSFDYSTSVRVTGPVVENQPPRSDKVTTTYLHHIQKGKLIQPFGCLLALDEKTFKVIAYSENASELLTMASHAVPSVGEHPVLGIGTDIRSLFTAPSASALQKALGFGDVSLLNPILVHCRTSAKPFYAIIHRVTGSIIIDFEPVKPYEVPMTAAGALQSYKLAAKAITRLQSLPSGSMERLCDTMVQEVFELTGYDRVMAYKFHEDDHGEVVSEVTKPGLEPYLGLHYPATDIPQAARFLFMKNKVRMIVDCNAKHARVLQDEKLSFDLTLCGSTLRAPHSCHLQYMANMDSIASLVMAVVVNEEDGEGDAPDATTQPQKRKRLWGLVVCHNTTPRFVPFPLRYACEFLAQVFAIHVNKEVELDNQMVEKNILRTQTLLCDMLMRDAPLGIVSQSPNIMDLVKCDGAALLYKDKIWKLGTTPSEFHLQEIASWLCEYHMDSTGLSTDSLHDAGFPRALSLGDSVCGMAAVRISSKDMIFWFRSHTAGEVRWGGAKHDPDDRDDARRMHPRSSFKAFLEVVKTRSLPWKDYEMDAIHSLQLILRNAFKDSETTDVNTKVIYSKLNDLKIDGIQELEAVTSEMVRLIETATVPILAVDSDGLVNGWNTKIAELTGLSVDEAIGKHFLTLVEDSSVEIVKRMLENALEGTEEQNVQFEIKTHLSRADAGPISLVVNACASRDLHENVVGVCFVAHDLTGQKTVMDKFTRIEGDYKAIIQNPNPLIPPIFGTDEFGWCTEWNPAMSKLTGLKREEVIDKMLLGEVFGTQKSCCRLKNQEAFVNLGIVLNNAVTSQDPEKVSFAFFTRGGKYVECLLCVSKKLDREGVVTGVFCFLQLASHELQQALHVQRLAERTAVKRLKALAYIKRQIRNPLSGIMFTRKMIEGTELGPEQRRILQTSALCQKQLSKILDDSDLESIIEGCLDLEMKEFTLNEVLTASTSQVMMKSNGKSVRITNETGEEVMSDTLYGDSIRLQQVLADFMLMAVNFTPSGGQLTVSASLRKDQLGRSVHLANLEIRLTHTGAGIPEFLLNQMFGTEEDVSEEGLSLMVSRKLVKLMNGDVQYLRQAGKSSFIITAELAAANK
partner: B1 partner
B4: Phytochrome A (Arabidopsis thaliana (Mouse-ear cress)), P14712 (parent)
chain: B3 chain
partner: B2 partner

Variants of: B1
Conditions: with pif3_arath PIF3, O80536

Row | Variant | effect of a mutation on the interaction
1 | G767R | decreasing interaction

Variants of: B2
Conditions: with PIF4, Q8W2F3-2

Row | Variant | effect of a mutation on the interaction
2 | G767R | decreasing interaction

Variants of: B3
Conditions: with pif3_arath PIF3, O80536

Row | Variant | effect of a mutation on the interaction
3 | A715V | decreasing interaction
4 | G750E | decreasing interaction

Variants of: B4
Conditions: with PIF4, Q8W2F3-2

Row | Variant | effect of a mutation on the interaction
5 | A715V | decreasing interaction
6 | G787E | decreasing interaction
